According to patent US20250325718A1, “IMMUNOCONJUGATES COMPRISING KALLIKREIN RELATED PEPTIDASE 2 ANTIGEN BINDING DOMAINS AND THEIR USES” (Janssen Biotech, Inc., priority 2021, published 2025):

Experiments:
soluble hK2 = soluble hK2 (Homo sapiens, UniProt P20151); assay: Affinity of hK2 antibodies for soluble hK2 by surface plasmon resonance (SPR); format: binding; conditions: antibody captured on anti-Fc chip, soluble hK2 injected, 1:1 Langmuir fit, KD = koff/kon
Experimental: Affinity of selected hK2 antibodies for soluble hK2 was measured by surface plasmon resonance (SPR). SPR is a label-free technique to study the strength of an interaction between two binding partners by measuring the change in mass upon complex formation and dissociation. Antibodies were captured on a sensor chip coated with an anti-Fc antibody followed by injection of soluble hK2 at various concentrations and specified association and dissociation times. Post dissociation, the surface was regenerated with an appropriate solution to prepare for the next interaction. Kinetic information (on-rate and off-rate constants) were extracted by fitting sensorgrams to the 1:1 Langmuir model. Binding affinity (KD) are reported as the ratio of rate constants (koff/kon).

[1] = Thermal stability by Differential Scanning Fluorimetry (NanoDSF); format: physicochemical; conditions: 0.5 mg/mL in Phosphate Buffered Saline pH 7.4, 20-95 ° C. at 1.0 ° C./minute
Experimental: Thermal stability was determined by Differential Scanning Fluorimetry (NanoDSF) using an automated Prometheus instrument. NanoDSF was used to measure Tm of molecules at a concentration of 0.5 mg/mL in Phosphate Buffered Saline, pH 7.4. Measurements were made by loading samples into 24 well capillary from a 384 well sample plate. Duplicate runs were performed for each sample. The thermal scans span from 20° C., to 95° C. at a rate of 1.0° C./minute. Intrinsic tryptophan and tyrosine fluorescence were monitored at the emission wavelengths of 330 nm and 350 nm, and the F350/F330 nm ratio were plotted against temperature to generate unfolding curves.

hK2-positive VCaP cells = assay: Target cell binding by flow cytometry, hK2-positive cells; format: cell-based; conditions: 4° C. 60 minutes, anti-Human F(ab′)2 secondary detection, live cells
Source text: To evaluate target cell binding of the KL2B30 Fab with different conjugation variants, VCaP cells were used as hK2-positive target cells and DU145 cells were used as hK2-negative cells. KL2B30 parental antibody (comprising a heavy chain and light chain of SEQ ID NO: 210 and SEQ ID NO: 221, respectively) and hul1B6 (an anti-hK2 antibody, also referred to herein as h11B6, comprising a heavy chain and light chain of SEQ ID NO: 203 and SEQ ID NO: 215, respectively) were included as positive controls. The h11B6 antibody is described in U.S. Pat. No. 10,100,125, which is incorporated by reference herein. An anti-Human F(ab′)2 fragment specific secondary detection antibody was used for detecting Fab-based binding. Test antibodies were incubated with target cells at 4° C. for 60 minutes and detected by secondary staining. Cell binding was quantified by flow cytometry based on secondary antibody binding signal and gated from on live cells.

soluble hK2, sequence (P20151 25-261): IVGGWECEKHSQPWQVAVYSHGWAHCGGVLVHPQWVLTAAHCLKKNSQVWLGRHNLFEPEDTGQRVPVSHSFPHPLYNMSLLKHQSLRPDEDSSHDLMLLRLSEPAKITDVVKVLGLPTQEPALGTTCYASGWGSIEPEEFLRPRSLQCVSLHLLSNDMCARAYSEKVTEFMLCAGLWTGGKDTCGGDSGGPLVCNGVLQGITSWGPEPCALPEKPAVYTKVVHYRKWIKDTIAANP

Molecule | Tm (° C.) [1] [°C] | other results
KL2B413 (scFv-LH-Fc): anti-hK2 antibody from Ablexis mice immunization; VH SEQ ID NO: 137, VL SEQ ID NO: 138 (protein) chain 1: EVQLVESGGGLVQPGGSLRLSCAASGFTFSSYWMTWVRQAPGKGLEWVANIKQDGSERYYVDSVKGRFTISRDNAKNSLYLQMNSLRAEDTAVYYCARDQNYDILTGHYGMDVWGQGTTVTVSS chain 2: EIVLTQSPSFLSASVGDRVTITCRASQGISSYLSWYQQKPGKAPKLLIYATSTLQSGVPSRFSGSGSGTEFTLTISSLQPEDFATYYCQQLNSYPRTFGQGTKVEIK | – | Kd (soluble hK2): 34.3 nM; Kd (soluble hK2; listed as KL2B413 scFv): ~34 nM
KL2B359 (scFv-LH-Fc): anti-hK2 clone from the re-humanization campaign of 11B6; VH SEQ ID NO: 139, VL SEQ ID NO: 140 (protein, left off: a dimerising Fc or GST; small tags and cut ends) scFv: EIVLTQSPATLSLSPGERATLSCRASESVEYFGTSLMHWYQQKPGQPPRLLIYAASNVESGIPARFSGSGSGTDFTLTISSVEPEDFAVYFCQQTRKVPYTFGGGTKVEIKGGSEGKSSGSGSESKSTGGSQVQLQESGPGLVKPSQTLSLTCTVSGNSITSDYAWNWIRQFPGKRLEWIGYISYSGSTTYNPSLKSRVTISRDTSKNQFSLKLSSVTAADTAVYYCATGYYYGSGFWGQGTLVTVSS | 67 | –
KL2B997 SORT: KL2B997 site-specific ADC prepared via the sortase tag with Gly3-vcMMAF (conjugate, left off: a dimerising Fc or GST; large carriers, KL2B997 site-specific ADC prepared via the sortase tag with Gly3-vcMMAF) heavy: QVQLQESGPGLVKPSETLSLTCTVSGGSISSYYWSWIRQPPGKGLEWIGYIYYSGSTNYNPSLKSRVTISVDTSKNQFSLKLSSVTAADTAVYYCAGTTIFGVVTPNFYYGMDVWGQGTTVTVSS light: DIQMTQSPSFLSASVGDRVTITCRASQGISSYLAWYQQKPGKAPKFLIYAASTLQSGVPSRFSGSGSGTEFTLTISSLQPEDFATYYCQQLNSYPLTFGGGTKVEIK | – | cell binding to hK2-positive VCaP cells (hK2-positive VCaP cells): positive and dose-dependent cell binding
KL2B467 (Fab): anti-hK2 antibody from OmniRat immunization; VH SEQ ID NO: 168, VL SEQ ID NO: 169 (antibody, V domains shown) VH: QVQLVESGGGVVQPGRSLRLSCAASGFTFSYYGMHWVRQAPGKGLEWVAFISYDGSNKYYADSVKGRFTISRDNSKNTLYLQMNSLRAEDTAVYYCAHLPYSGSYWAFDYWGQGTQVTVSS VL: QSVLTQPPSVSVAPGQTASITCGGDNIGSKSVHWYQQKPGQAPVLVVYDNSDRPSGIPERFSGSNSGTTATLTISRVEAGDEADYYCQVWDSSSDHPVVFGGGTKVTV | >70 | –
KL2B242 (Fab): anti-hK2 antibody; VH SEQ ID NO: 166, VL SEQ ID NO: 167 (antibody, V domains shown) VH: QVQLQESGPGLVKPSETLSLTCTVSGGSISSYYWSWLRQPAGSGLEWIGRLYVSGFTNYNPSLKSRVTLSLDPSRNQLSLKLSSVTAADTAVYYCAGDSGNYWGWFDPWGQGTLVTVSS VL: SYELTQPPSVSVSPGETASITCSGDQLGENYACWYQQKPGQSPVLVIYQDSKRPSGIPERFSGSNSGNTATLTISGTQALDEADYYCQAWDNSIVVFGGGTKLTVL | >70 | –
KL2B53 (Fab): anti-hK2 antibody; VH SEQ ID NO: 164, VL SEQ ID NO: 165 (antibody, V domains shown) VH: EVQLVESGGGVVQPGRSLRLSCVASGFTFSSYDIHWVRQAPGKGLEWVAIISYDGSKKDYTDSVKGRFTISRDNSKNTLYLQMDSLRVEDSAVYSCARESGWSHYYYYGMDVWGQGTMVTVSS VL: DIVMTQSPSSLSASVGDRVTITCRASQDISNYLAWYQQKPGKVPKFLIYAASTLHSGVPSRFSGSGSGTDFTLTISSLQPEDVATYYCQKYNSAPYTFGQGTRLEIK | >70 | –
